# Source: patent publication US5821048, “Methods, kits, and compositions for diagnosing papillomavirus infection” (President and Fellows of Harvard College, dated 1998)
# T1: BPV-1 E2 (aa161-410) (bovine papillomavirus-1, 35S-methionine-labelled)
# T1 chain: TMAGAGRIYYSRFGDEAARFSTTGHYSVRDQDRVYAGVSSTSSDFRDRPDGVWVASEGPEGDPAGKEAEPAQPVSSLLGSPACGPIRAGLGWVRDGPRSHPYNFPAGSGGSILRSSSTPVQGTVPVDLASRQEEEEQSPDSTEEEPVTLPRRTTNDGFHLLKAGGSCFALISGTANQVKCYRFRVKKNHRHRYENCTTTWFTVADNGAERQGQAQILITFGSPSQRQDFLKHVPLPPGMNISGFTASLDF
# T2: BPV-1 E2 protein bearing a deletion of the amino terminal 52 amino acids (bovine papillomavirus-1, 35S-methionine-labelled)
# T2 chain: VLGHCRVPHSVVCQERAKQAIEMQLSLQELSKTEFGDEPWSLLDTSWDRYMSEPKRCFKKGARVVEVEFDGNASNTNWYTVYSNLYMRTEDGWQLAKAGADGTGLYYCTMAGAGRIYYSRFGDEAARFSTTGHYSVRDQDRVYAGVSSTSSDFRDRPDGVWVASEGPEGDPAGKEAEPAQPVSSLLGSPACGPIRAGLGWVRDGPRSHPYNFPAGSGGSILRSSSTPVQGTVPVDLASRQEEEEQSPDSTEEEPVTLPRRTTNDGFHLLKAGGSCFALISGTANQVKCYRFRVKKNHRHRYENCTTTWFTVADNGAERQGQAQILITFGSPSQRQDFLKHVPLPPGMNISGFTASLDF
# T3: full length BPV-1 E2 protein, in vitro translated (bovine papillomavirus-1, 35S-methionine-labelled)
# T3 chain: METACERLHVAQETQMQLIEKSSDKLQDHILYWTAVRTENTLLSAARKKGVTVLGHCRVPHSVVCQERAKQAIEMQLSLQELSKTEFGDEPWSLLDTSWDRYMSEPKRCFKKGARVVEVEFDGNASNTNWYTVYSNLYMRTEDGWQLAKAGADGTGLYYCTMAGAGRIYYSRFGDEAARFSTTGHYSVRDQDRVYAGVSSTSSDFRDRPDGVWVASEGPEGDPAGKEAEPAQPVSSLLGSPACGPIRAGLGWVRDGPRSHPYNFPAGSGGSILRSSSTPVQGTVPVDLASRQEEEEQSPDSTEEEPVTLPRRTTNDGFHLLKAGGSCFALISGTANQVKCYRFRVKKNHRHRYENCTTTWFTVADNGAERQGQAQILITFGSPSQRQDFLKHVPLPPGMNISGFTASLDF
# B1: BPV-1 E1 (amino acids 1-222)-GST fusion protein (other)
# chain: MANDKGSNWDSGLGCSYLLTEAECESDKENEEPGAGVELSVESDRYDSQDEDFVDNASVFQGNHLEVFQALEKKAGEEQILNLKRKVLGSSQNSSGSEASETPVKRRKSGAKRRLFAENEANRVLTPLQVQGEGEGRQELNEEQAISHLHLQLVKSKNATVFKLGLFKSLFLCSFHDITRLFKNDKTTNQQWVLAVFGLAEVFFEASFELLKKQCSFLQMQK
# B2: GST fusion protein containing BPV-1 E1 amino acids 1-128 (other)
# chain: MANDKGSNWDSGLGCSYLLTEAECESDKENEEPGAGVELSVESDRYDSQDEDFVDNASVFQGNHLEVFQALEKKAGEEQILNLKRKVLGSSQNSSGSEASETPVKRRKSGAKRRLFAENEANRVLTPL
# B3: GST fusion protein containing amino acids 200-424 of SEQ ID NO:1 (BPV-1 E1) (other)
# chain: AEVFFEASFELLKKQCSFLQMQKRSHEGGTCAVYLICFNTAKSRETVRNLMANTLNVREECLMLQPAKIRGLSAALFWFKSSLSPATLKHGALPEWIRAQTTLNESLQTEKFDFGTMVQWAYDHKYAEESKIAYEYALAAGSDSNARAFLATNSQAKHVKDCATMVRHYLRAETQALSMPAYIKARCKLATGEGSWKSILTFFNYQNIELITFINALKLWLKGIP
# Columns and labels:
# BPV-1 E2 (aa161-410) = target: T1, BPV-1 E2 (aa161-410); assay: GST pull-down of in vitro translated 35S-E2 forms
# [1] = target: T2, BPV-1 E2 protein bearing a deletion of …; assay: GST pull-down of in vitro translated 35S-E2 forms
# [2] = target: T3, full length BPV-1 E2 protein, in vitro …; assay: GST pull-down of in vitro translated 35S-E2
Binder,binding result (BPV-1 E2 (aa161-410)),binding result [1],binding result [2]
B1,no binding,no binding,–
B2,–,–,no binding
B3,–,–,no binding
